Patent publication US20060121489

Columns and labels:
[1] = molecular target: NF-kB p65 (RelA) homodimer (UniProt Q04206); experiment: EMSA; settings: 1:1 stoichiometry of p65 to the 22-mer site
NF-kB p50 homodimer = NF-kB p50 homodimer (UniProt P19838); settings: quoted in comparison with XBY-6
NF-kB p50 homodimer, sequence (P19838 1-433): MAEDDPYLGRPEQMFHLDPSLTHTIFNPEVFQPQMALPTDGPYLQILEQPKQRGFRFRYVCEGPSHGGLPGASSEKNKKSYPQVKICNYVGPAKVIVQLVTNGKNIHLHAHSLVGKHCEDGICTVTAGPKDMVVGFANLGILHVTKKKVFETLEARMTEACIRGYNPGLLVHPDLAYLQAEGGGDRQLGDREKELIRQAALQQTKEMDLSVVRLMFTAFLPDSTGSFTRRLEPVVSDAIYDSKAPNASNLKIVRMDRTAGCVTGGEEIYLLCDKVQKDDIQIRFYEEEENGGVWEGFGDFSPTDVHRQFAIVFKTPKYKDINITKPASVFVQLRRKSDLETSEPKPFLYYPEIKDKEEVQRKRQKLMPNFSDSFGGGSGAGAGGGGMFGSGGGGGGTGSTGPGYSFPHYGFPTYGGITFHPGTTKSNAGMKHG

NF-kB p65 (RelA) homodimer, sequence (Q04206 whole entry): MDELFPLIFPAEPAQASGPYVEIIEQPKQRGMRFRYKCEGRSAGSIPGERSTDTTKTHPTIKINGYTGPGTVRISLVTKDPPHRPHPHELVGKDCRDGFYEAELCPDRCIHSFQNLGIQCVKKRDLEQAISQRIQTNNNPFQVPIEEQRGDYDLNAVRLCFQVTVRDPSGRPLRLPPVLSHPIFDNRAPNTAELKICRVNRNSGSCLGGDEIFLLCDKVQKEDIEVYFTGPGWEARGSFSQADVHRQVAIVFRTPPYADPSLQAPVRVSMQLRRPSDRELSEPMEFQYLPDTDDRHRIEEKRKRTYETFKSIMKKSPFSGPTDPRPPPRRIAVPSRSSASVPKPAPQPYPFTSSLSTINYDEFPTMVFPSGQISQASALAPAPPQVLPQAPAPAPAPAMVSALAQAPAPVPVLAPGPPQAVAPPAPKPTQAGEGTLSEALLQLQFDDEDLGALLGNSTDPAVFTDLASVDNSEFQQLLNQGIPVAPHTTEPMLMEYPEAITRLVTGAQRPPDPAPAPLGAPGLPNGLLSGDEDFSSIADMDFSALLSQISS

## IgkB promoter element 22-mer
[1]
  Kd: 4 nM
NF-kB p50 homodimer
  Kd: 4 nM
